Measured values as given in patent US7268215B2, “Photoprotein derived from okinawan squid and gene encoding the photoprotein” (Nagoya University, priority 2000, dated 2007).

Columns and labels:
[1] = enzymatic characteristics and cation trigger of luminescence; assay type: biochemical, Symplectoteuthis oualaniensis; conditions: different from aequorin
From the text: The photoprotein of okinawan squid has a low solubility and there is no conventional method for research of the protein. When a surfactant to solubilize the membrane protein is used, luminescent activity of the okinawan squid photoprotein would be disrupted. By addition of KCl (a caotropic salt) to a buffer, the protein can be solubilized without disrupting its activity. The effects of various kinds of salts on the objective protein are examined in the terms of extraction efficiency and luminescent activity. […] Enzymatic characteristic of okinawan squid was investigated. […] (Isobe M. et al., Pure and Appl. Chem., (1998) Vol.70, 2085-2092).

[2] = luminescent ability of purified photoprotein and its trypsin fragments; assay type: biochemical, Symplectoteuthis oualaniensis; conditions: purified protein before and after trypsin digestion
From the text: From photogenic organ of okinawan squid, collected at the sea area of Okinawa Prefecture Japan, the photoprotein having a molecular mass of 60 kDa was separated and purified as a luminescent ability as an index. This photoprotein was soluble in a solution containing KCl at a concentration of more than 0.6M. At first, homogenate of the photogenic organ containing symplectin was washed by KCl solution (pH 6.0) of 0.4M. Then, it was extracted with a KCl solution of 0.6M, and a portion thereof was added to a buffer having pH of 8.0 to confirm the luminescent ability. Because of high salt concentration, means of chromatography applicable for purification of the extract was limited. When the purified protein was hydrolyzed by trypsin, two products having molecular masses of 40 kDa and 15 kDa were produced from the original protein of 60 kDa (FIG. 2). […] Fragments of 40 kDa and 15 kDa were recognized after trypsin digestion, particularly in lane 3 corresponding to the purified protein. […] However, the amino acid sequence of the 15 kDa protein was the same as the N-terminal amino acid sequence of the 60 kDa protein. […] Incidentally, the active region responsible for the photogenic function would exist at the C-terminal portion corresponding to the 40 kDa protein.

[3] = assay type: physicochemical, Symplectoteuthis oualaniensis
From the text: The photoprotein of okinawan squid has a low solubility and there is no conventional method for research of the protein. When a surfactant to solubilize the membrane protein is used, luminescent activity of the okinawan squid photoprotein would be disrupted. By addition of KCl (a caotropic salt) to a buffer, the protein can be solubilized without disrupting its activity. The effects of various kinds of salts on the objective protein are examined in the terms of extraction efficiency and luminescent activity. […] Enzymatic characteristic of okinawan squid was investigated. […] (Isobe M. et al., Pure and Appl. Chem., (1998) Vol.70, 2085-2092). From photogenic organ of okinawan squid, collected at the sea area of Okinawa Prefecture Japan, the photoprotein having a molecular mass of 60 kDa was separated and purified as a luminescent ability as an index. This photoprotein was soluble in a solution containing KCl at a concentration of more than 0.6M. At first, homogenate of the photogenic organ containing symplectin was washed by KCl solution (pH 6.0) of 0.4M. Then, it was extracted with a KCl solution of 0.6M, and a portion thereof was added to a buffer having pH of 8.0 to confirm the luminescent ability. Because of high salt concentration, means of chromatography applicable for purification of the extract was limited.

[4] = bioluminescence assay of recombinant symplectin protein with dehydrocoeleneterazine; assay type: biochemical, Symplectoteuthis oualaniensis; conditions: complex with dehydrocoeleneterazine, 37° C. for 30 min, alkaline buffer (pH9.8) added
Experimental: The PCR products were separated on an agarose gel succeeded by digestion with EcoRI and SalI. Then it was ligated to EcoRI and SalI site of pET-32a(+) to construct a vector. The vector was designated pET-60 and it was utilized for expression of symplectin protein. The E. coli strain BL21(DE3)pLysS, transformed by pET-60, was grown in Luria broth (LB) at 37° C. Expression of the protein was induced by addition of isopropyl-1-thio-b-D-galactopyranoside (IPTG). The cells were harvested by centrifugation and lysed by sonication in a buffer. The homogenate was centrifuged, and the supernatant was subjected to affinity chromatography using His-Bind Resin. The fusion protein with thioredoxin was purified by a step-wise manner elution with varied imidazole concentrations. The recombinant symplectin protein was obtained as a fusion protein with thioredoxin, according to the manipulation described above. The recombinant symplectin protein was subjected to bioluminescence assay. The recombinant symplectin protein was suspended in a buffer, mixed with chromophore dehydrocoeleneterazine, then protein-chromophore complex was formed by incubation at 37° C. for 30 min. The alkaline buffer (pH9.8) was added to increase pH of the protein-chromophore complex solution and the bioluminescence reaction was initiated. […]

| Molecule | triggering of luminescence by a divalent cation [1] | ability to emit luminescence [2] | KCl concentration of solution in which the photoprotein is soluble [3] | solubility into an aqueous solution [3] | luminescence monitored by lumiphotometer [4] | ability to emit luminescence ([2]; listed as 40 kDa fragment) |
| --- | --- | --- | --- | --- | --- | --- |
| symplectin: photoprotein derived from okinawan squid (Symplectoteuthis oualaniensis), 501 amino acids, SEQ ID NO:1 (protein, listed as Symplectoteuthis oualaniensis) YVRPVSSWKVAVFEHQVIPPKTDMETREEALDALKLNSDVYHEAVLESRSKGVKMIVFPEYGLYDINTLTRTRMDLMAEKVPHPKHGHRNPCDEPEYQTQSSEMLRTFSCMAKENDMYMVVNMAGREPCRRATEPECPGDKQLLYNTNVAFNNEGDVVARYYKTHLFWEEGWFNSSKNYEMALWDTPIGKFGTFMCFDFQAVQLIEQYNVRHIAYPASWVNLPPIYQSIQSHSAFARFAKINLLAASVHRLETSTYGSGIYSPNGAEIFYFRPDIPKSKLLVAEILPIHVKKPEQTVVNKDNPVFPSEDDDVQDLFDRGDFAFLKYKRMTTRAGTVEVCQKSFCCKARYAVKDRFKEVYAVGVYDGLLSAGANNLYFQICTVIQCPHKKCGLKISKVRTHFKYLNLRADGWLDRYVFPSYTVMYNNYIALDPFVWNYTVAGGIETKPGTSTPLHSANLVARIYAKDSSKHVHQPHPIDEGVIKMAVKYMLYVMAAYVYAAS | not triggered by a divalent cation | exhibited luminescence | more than 0.6 M | low | – | – |
| recombinant symplectin protein: recombinant symplectin expressed in E. coli from pET-60 as a fusion protein with thioredoxin (protein, left off: large carriers; things letters cannot carry, recombinant symplectin expressed in E. coli from pET-60 as a fusion protein with thioredoxin) FEHQVIPPKTDMETREEALDALKLNSDVYHEAVLESRSKGVKMIVFPEYGLYDINTLTRTRMDLMAEKVPHPKHGHRNPCDEPEYQTQSSEMLRTFSCMAKENDMYMVVNMAGREPCRRATEPECPGDKQLLYNTNVAFNNEGDVVARYYKTHLFWEEGWFNSSKNYEMALWDTPIGKFGTFMCFDFQAVQLIEQYNVRHIAYPASWVNLPPIYQSIQSHSAFARFAKINLLAASVHRLETSTYGSGIYSPNGAEIFYFRPDIPKSKLLVAEILPIHVKKPEQTVVNKDNPVFPSEDDDVQDLFDRGDFAFLKYKRMTTRAGTVEVCQKSFCCKARYAVKDRFKEVYAVGVYDGLLSAGANNLYFQICTVIQCPHKKCGLKISKVRTHFKYLNLRADGWLDRYVFPSYTVMYNNYIALDPFVWNYTVAGGIETKPGTSTPLHSANLVARIYAKDSSKHVHQPHPIDEGVIKMAVKYMLYVMAAYVYAAS | – | – | – | – | obvious luminescence was detected | – |
| 40 kDa protein: 40 kDa trypsin fragment of symplectin, C-terminal portion, SEQ ID NO:2 (protein, listed as Symplectoteuthis oualaniensis) ATEPECPGDKQLLYNTNVAFNNEGDVVARYYKTHLFWEEGWFNSSKNYEMALWDTPIGKFGTFMCFDFQAVQLIEQYNVRHIAYPASWVNLPPIYQSIQSHSAFARFAKINLLAASVHRLETSTYGSGIYSPNGAEIFYFRPDIPKSKLLVAEILPIHVKKPEQTVVNFDNPVFPSEDDDVQDLFDRGDFAFLKYKRMTTRAGTVEVCQKSFCCKARYAVKDRFKEVYAVGVYDGLLSAGANNLYFQICTVIQCPHKKCGLKISKVRTHFKYLNLRADGWLDRYVFPSYTVMYNNYIALDPFVWNYTVAGGIETKPGTSTPLHSANLVARIYAKDSSKHVHQPHPIDEGVIKMAVKYMLYVMAAYVYAAS | – | exhibited luminescence | – | – | – | exhibited photogenic activity |
